As usually defined, the stoichiometry N is the number of molecules, sites or subunits per partner or assembly.

In the assay the target is MUC2C-N (human MUC2 4256-4803, C4786A; PTS3, VWCN, D4 and VWC1) (human). The experiment in a line: cross-linking.

For the substance “MUC2C-N (human MUC2 4256-4803, C4786A; PTS3, VWCN, D4 and VWC1) (domain or fragment)”, the stoichiometry N was found to be 2.

The record behind these values is article doi:10.1101/2025.03.16.643548.
